Measured values as given in patent US20250043019A1 (Janssen / Centocor, published 2025).

T1: human CD79b on the cell surface (human, UniProt P40259 29-229)
T1 sequence: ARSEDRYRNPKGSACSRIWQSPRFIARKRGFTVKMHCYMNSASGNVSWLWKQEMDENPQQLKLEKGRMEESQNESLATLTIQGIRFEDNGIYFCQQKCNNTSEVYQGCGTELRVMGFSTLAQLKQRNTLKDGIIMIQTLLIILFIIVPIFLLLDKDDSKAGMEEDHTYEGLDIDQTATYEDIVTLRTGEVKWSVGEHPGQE

T2: human CD79b and CD20 co-expressed on the surface of B-lymphoma cell lines or primary B cells (human, UniProt P11836 1-297)
T2 sequence 1: T1 sequence
T2 sequence 2: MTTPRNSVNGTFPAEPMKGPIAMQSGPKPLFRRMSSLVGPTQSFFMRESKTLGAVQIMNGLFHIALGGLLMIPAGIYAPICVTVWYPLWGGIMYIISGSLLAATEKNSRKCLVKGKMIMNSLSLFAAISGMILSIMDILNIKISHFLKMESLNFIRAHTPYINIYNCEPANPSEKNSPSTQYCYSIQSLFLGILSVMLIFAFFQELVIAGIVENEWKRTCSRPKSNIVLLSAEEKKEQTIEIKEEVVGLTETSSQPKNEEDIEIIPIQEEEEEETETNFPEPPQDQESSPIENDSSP

B1: 79C3B645 CD79bxCD3 bispecific antibody (bispecific antibody, human IgG1, lambda, L234A L235A)
heavy: QVQLQQSGPGLVKPSQTLSLTCAISGDSVSSNSATWNWIRQSPSRGLEWLGRTYYRSKWYNDYTVSVKSRITINPDTSKNQFSLQLNSVTPEDTAVYYCTRVDIAFDYWGQGTLVTVSSASTKGPSVFPLAPSSKSTSGGTAALGCLVKDYFPEPVTVSWNSGALTSGVHTFPAVLQSSGLYSLSSVVTVPSSSLGTQTYICNVNHKPSNTKVDKKVEPKSCDKTHTCPPCPAPEAAGGPSVFLFPPKPKDTLMISRTPEVTCVVVSVSHEDPEVKFNWYVDGVEVHNAKTKPREEQYNSTYRVVSVLTVLHQDWLNGKEYKCKVSNKALPAPIEKTISKAKGQPREPQVYTLPPSREEMTKNQVSLSCAVKGFYPSDIAVEWESNGQPENNYKTTPPVLDSDGSFFLVSKLTVDKSRWQQGNVFSCSVMHEALHNRFTQKSLSLSPGK
light: QTVVTQPPSVSEAPRQRVTISCSGSSSNIGNHGVNWYQQLPGKAPKLLIYNDDLLPSGVSDRFSGSTSGTSGSLAISGLQSEDEADYYCAAWDDSLNGVVFGGGTKLTVLGQPKAAPSVTLFPPSSEELQANKATLVCLISDFYPGAVTVAWKADSSPVKAGVETTTPSKQSNNKYAASSYLSLTPEQWKSHRSYSCQVTHEGSTVEKTVAPTECS
chain: EIVLTQSPATLSASPGERVTLSCSASSSVSYMNWYQQKPGQAPRRWIYDSSKLASGVPARFSGSGSGRDYTLTISSLEPEDFAVYYCQQWSRNPPTFGGGTKVEIKGGSEGKSSGSGSESKSTGGSQVQLVQSGAEVKKPGSSVKVSCKASGYTFTRSTMHWVRQAPGQGLEWMGYINPSSAYTNYAQKFQGRVTLTADKSTSTAYMELSSLRSEDTAVYYCASPQVHYDYGGFPYWGQGTLVTVSSEPKSSDKTHTCPPCPAPEAAGGPSVFLFPPKPKDTLMISRTPEVTCVVVSVSHEDPEVKFNWYVDGVEVHNAKTKPREEQYNSTYRVVSVLTVLHQDWLNGKEYKCKVSNKALPAPIEKTISKAKGQPREPQVYTLPPSREEMTKNQVSLWCLVKGFYPSDIAVEWESNGQPENNYKTTPPVLDSDGSFFLYSKLTVDKSRWQQGNVFSCSVMHEALHNHYTQKSLSLSPGK
B2: 79C3B650 CD79bxCD3 bispecific antibody (bispecific antibody, human IgG1, kappa, L234A L235A)
heavy: QVQLQESGPGLVKPSQTLSLTCTVSGVSISNYYWSWIRQPPGKGLEWIGRISPSGRTNYNPSLKSRVTMSLDASKNQFSLKLSSVTAADTAVYYCARGEYSGTYSYSFDIWGQGTMVTVSSASTKGPSVFPLAPSSKSTSGGTAALGCLVKDYFPEPVTVSWNSGALTSGVHTFPAVLQSSGLYSLSSVVTVPSSSLGTQTYICNVNHKPSNTKVDKKVEPKSCDKTHTCPPCPAPEAAGGPSVFLFPPKPKDTLMISRTPEVTCVVVSVSHEDPEVKFNWYVDGVEVHNAKTKPREEQYNSTYRVVSVLTVLHQDWLNGKEYKCKVSNKALPAPIEKTISKAKGQPREPQVYTLPPSREEMTKNQVSLSCAVKGFYPSDIAVEWESNGQPENNYKTTPPVLDSDGSFFLVSKLTVDKSRWQQGNVFSCSVMHEALHNRFTQKSLSLSPGK
light: DIQMTQSPSSLSASVGDRVTITCRSSQSLFDSDDGNTYLDWFQQKPGQSPKLLIQTLSYRASGVPSRFSGSGSGTDFTLTISSLQPEDFATYYCMQRMEFPLTFGGGTKVEIKRTVAAPSVFIFPPSDEQLKSGTASVVCLLNNFYPREAKVQWKVDNALQSGNSQESVTEQDSKDSTYSLSSTLTLSKADYEKHKVYACEVTHQGLSSPVTKSFNRGEC
chain: B1 chain
B3: 79C3B605 CD79bxCD3 bispecific antibody (bispecific antibody, human IgG1, kappa, L234A L235A)
heavy: QVQLQESGPGLVKPSETLSLTCSVSGASISSFYWSWIRQPADEGLEWIGRISPSGKTNYIPSLKSRIIMSLDASKNQFSLRLNSVTAADTAMYYCARGEYSGTYSYSFDVWGQGTMVTVSSASTKGPSVFPLAPSSKSTSGGTAALGCLVKDYFPEPVTVSWNSGALTSGVHTFPAVLQSSGLYSLSSVVTVPSSSLGTQTYICNVNHKPSNTKVDKKVEPKSCDKTHTCPPCPAPEAAGGPSVFLFPPKPKDTLMISRTPEVTCVVVSVSHEDPEVKFNWYVDGVEVHNAKTKPREEQYNSTYRVVSVLTVLHQDWLNGKEYKCKVSNKALPAPIEKTISKAKGQPREPQVYTLPPSREEMTKNQVSLSCAVKGFYPSDIAVEWESNGQPENNYKTTPPVLDSDGSFFLVSKLTVDKSRWQQGNVFSCSVMHEALHNRFTQKSLSLSPGK
light: DIVMTQSPLSLSVTPGEPASISCRSSESLLDSEDGNTYLDWFLQKPGQSPQLLIYTLSYRASGVPDRFSGSGSDTDFTLHISSLEAEDVGLYYCMQRMEFPLTFGQGTKVEIKRTVAAPSVFIFPPSDEQLKSGTASVVCLLNNFYPREAKVQWKVDNALQSGNSQESVTEQDSKDSTYSLSSTLTLSKADYEKHKVYACEVTHQGLSSPVTKSFNRGEC
chain: B1 chain
B4: C923B95 CD79bxCD20xCD3 trispecific antibody (other)
heavy: B2 heavy
light: B2 light
chain: EIVLTQSPATLSASPGERVTLSCSASSSVSYMNWYQQKPGQAPRRWIYDSSKLASGVPARFSGSGSGRDYTLTISSLEPEDFAVYYCQQWSRNPPTFGGGTKVEIKGGSEGKSSGSGSESKSTGGSQVQLVQSGAEVKKPGSSVKVSCKASGYTFTRSTMHWVRQAPGQGLEWMGYINPSSAYTNYAQKFQGRVTLTADKSTSTAYMELSSLRSEDTAVYYCASPQVHYDYGGFPYWGQGTLVTVSSEPKSSDKTHTCPPCPAPEAAGGPSVFLFPPKPKDTLMISRTPEVTCVVVSVSHEDPEVKFNWYVDGVEVHNAKTKPREEQYNSTYRVVSVLTVLHQDWLNGKEYKCKVSNKALPAPIEKTISKAKGQPREPQVYTLPPSREEMTKNQVSLWCLVKGFYPSDIAVEWESNGQPENNYKTTPPVLDSDGSFFLYSKLTVDKSRWQQGNVFSCSVMHEALHNHYTQKSLSLSPGKGGSEGKSSGSGSESKSTGGSAIQLTQSPSSLSASVGDRVTITCRASSSVSYIHWFQQKPGKAPKPLIYATSNLASGVPSRFSGSGSGTDFTLTISSLQPEDFATYYCQQWTSNPPTFGQGTKLEIKGGSEGKSSGSGSESKSTGGSQVQLVQSGAEVKKPGSSVKVSCKASGYTFTSYNMHWVRQAPGQGLEWMGAIYPGNGDTSYAQKFQGRVTITADKSTSTAYMELSSLRSEDTAVYYCARSTYYGGDWYFNVWGQGTLVTVSS
B5: C923B36 CD79bxCD20xCD3 trispecific antibody (other)
heavy: B3 heavy
light: B3 light
chain: B4 chain
B6: C923B73 CD79bxCD20xCD3 trispecific antibody (other)
heavy: B1 heavy
light: B1 light
chain: B4 chain

Target: T1, human CD79b on the cell surface
Assay: cell-based or functional assay

Row | Binder | IC50, T-cell killing of HBL-1 (Incucyte)
1 | B1 | 7.19 nM
2 | B2 | 43.3 nM
3 | B3 | 29.5 nM

Target: T2, human CD79b and CD20 co-expressed on …
Assay: cell-based or functional assay

Row | Binder | IC50, T-cell killing of HBL-1 (Incucyte)
4 | B4 | 4.89 nM
5 | B5 | 31 nM
6 | B6 | 6.8 nM

Target: T1, human CD79b on the cell surface
Assay: cell-based or functional assay
Remark: another data set of the same source

Row | Binder | IC50, T-cell killing of OCI-Ly10 (Incucyte)
7 | B1 | 18 nM
8 | B2 | 7 nM
9 | B3 | 54.3 nM

Target: T2, human CD79b and CD20 co-expressed on …
Assay: cell-based or functional assay
Remark: another data set of the same source

Row | Binder | IC50, T-cell killing of OCI-Ly10 (Incucyte)
10 | B4 | 14.8 nM
11 | B5 | 42 nM
12 | B6 | 132 nM
